The values that follow are results of earlier work, collected in publication PMC8035261.

One data set addresses SV2 (UniProt Q9Z2I6).
Another data set concerns the target FGFR3 (Homo sapiens) (UniProt P22607).
Chain of UniProt P22607 (P22607 23-806): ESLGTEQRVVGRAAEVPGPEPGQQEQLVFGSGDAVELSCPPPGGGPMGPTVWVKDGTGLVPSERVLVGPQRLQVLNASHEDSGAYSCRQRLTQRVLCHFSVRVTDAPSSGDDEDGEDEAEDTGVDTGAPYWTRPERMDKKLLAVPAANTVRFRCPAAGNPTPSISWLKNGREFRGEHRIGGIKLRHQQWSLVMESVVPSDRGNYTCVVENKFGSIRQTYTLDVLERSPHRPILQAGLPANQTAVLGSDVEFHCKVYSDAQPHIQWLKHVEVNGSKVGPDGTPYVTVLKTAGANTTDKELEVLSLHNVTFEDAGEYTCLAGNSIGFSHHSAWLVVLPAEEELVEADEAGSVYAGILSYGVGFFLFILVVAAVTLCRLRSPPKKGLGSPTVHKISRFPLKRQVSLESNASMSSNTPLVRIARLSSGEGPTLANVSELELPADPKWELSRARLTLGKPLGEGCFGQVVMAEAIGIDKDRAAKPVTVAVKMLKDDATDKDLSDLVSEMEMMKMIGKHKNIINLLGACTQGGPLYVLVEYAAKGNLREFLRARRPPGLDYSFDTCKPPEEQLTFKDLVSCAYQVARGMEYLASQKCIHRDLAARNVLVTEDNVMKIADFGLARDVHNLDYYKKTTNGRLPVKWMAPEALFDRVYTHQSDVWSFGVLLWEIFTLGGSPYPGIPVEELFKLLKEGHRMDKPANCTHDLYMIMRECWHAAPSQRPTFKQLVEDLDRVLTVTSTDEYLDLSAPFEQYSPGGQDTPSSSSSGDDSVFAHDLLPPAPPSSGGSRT

Chain of UniProt Q9Z2I6 (Q9Z2I6 whole entry): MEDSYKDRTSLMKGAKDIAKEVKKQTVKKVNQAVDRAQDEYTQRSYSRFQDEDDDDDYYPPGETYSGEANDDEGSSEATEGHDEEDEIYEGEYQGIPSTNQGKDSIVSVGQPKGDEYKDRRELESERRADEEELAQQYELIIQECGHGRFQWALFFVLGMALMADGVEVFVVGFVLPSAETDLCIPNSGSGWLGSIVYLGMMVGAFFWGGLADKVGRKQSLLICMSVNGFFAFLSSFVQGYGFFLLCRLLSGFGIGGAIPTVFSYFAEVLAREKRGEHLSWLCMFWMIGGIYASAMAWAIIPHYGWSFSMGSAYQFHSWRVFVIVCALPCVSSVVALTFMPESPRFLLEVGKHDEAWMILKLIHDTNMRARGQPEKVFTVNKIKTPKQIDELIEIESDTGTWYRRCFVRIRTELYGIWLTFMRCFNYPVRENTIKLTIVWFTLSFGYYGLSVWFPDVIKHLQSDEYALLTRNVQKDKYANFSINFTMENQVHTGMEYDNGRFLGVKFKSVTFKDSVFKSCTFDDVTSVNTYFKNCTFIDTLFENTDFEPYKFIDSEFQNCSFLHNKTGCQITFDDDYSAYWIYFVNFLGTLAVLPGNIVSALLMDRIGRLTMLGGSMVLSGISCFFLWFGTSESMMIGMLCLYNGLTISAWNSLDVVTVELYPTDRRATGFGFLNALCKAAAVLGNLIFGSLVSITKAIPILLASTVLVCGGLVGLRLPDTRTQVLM

The term Kd denotes the equilibrium constant for the complex coming apart. For the substance BoNT/A (from UniProt P0DPI1), the Kd in the data set with SV2 is 100 nM; in the data set with FGFR3 (Homo sapiens), 15 nM.
